Earlier results in patent US12377186B2, “Antimicrobial biopolymer compositions, methods of synthesis, and applications of use” (ARIZONA BOARD OF REGENTS ON BEHALF OF THE UNIVERSITY OF …, priority 2018, dated 2025).

Details: cited from earlier work

[(VPGAG)2 (VPGYG)1 (VPGAG)2]36 [ELP (A2Y1A2)36]
Tt, experimental of ELP (Tyr) (180 ELP pentapeptide repeats, according to previous research by Ingrole et al.): 25 °C
change in Tt when fused to a hydrophilic peptide (relative to the smaller ELP(A2Y1A2)24): less change in Tt
